Experiment: yeast display, Sf9 membrane polyspecificity reagent, FACS + sequencing; frameworks hold sequencing errors
Procedure, shortened: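 After 36–48 hours of galactose induction, yeast (Saccharomyces cerevisiae BJ5465) displaying a synthetic nanobody library were stained at 4 °C for 1 hour with 10% biotinylated, detergent-solubilized Sf9 membrane reagent. Streptavidin microbeads enriched the stained cells before FACS sorting into low and high (top ~1%) gates on anti-HA and streptavidin fluorescence. Each clone's polyreactivity label reflects its gate of origin.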

Q: With “QVQLVESGGGLVQAGGSLRLSCAASGRIYINNAMGWYRQAPGKDREFVAAITSGGRTYYADSVKGRFTISRDNAKYTVYLQMNSLKPEDTAVYYCAPRYYRQYTRHYGYGYWGQGTQVTVSS” as the sequence, how does the “polyreactivity (PSR sort gate)” value read?
A: high polyreactivity

Q: For “QVQLVESGGGLVQAGGSLRLSCAASGRIYPYYAMGWYRQAPGKERELVAAITTRGGSTYYADSVKGRFTISRDNAKNTVYLQMNSLKPEDTAVYYCAAVTFGRMEYWGQGTQVTVSS”, which “polyreactivity (PSR sort gate)” value is on record?
A: low polyreactivity

Q: With “QVQLVESGGGLVQAGGSLRLSCAASGRIYPYYDMGSYRPAPGKERELVAAITWNGGSTYYADSVKGRFTISRDYAKNTVYLQMNSLKPEDTAVYYCAVEPYYYGEDYWGQGTQVTVSS” as the sequence, how does the “polyreactivity (PSR sort gate)” value read?
A: low polyreactivity

Q: With “QVQLVESGGGLVQAGGSLRLSCAASGRIYRYAMGWYRQAPGKERELVAAISGGGGRTYYADSVKGRFTISRDNAKNTFYLQLNSLKPEVTAVYDCAVDPYFYYYGDYYFDYWGQGTQVTVSS” as the sequence, how does the “polyreactivity (PSR sort gate)” value read?
A: high polyreactivity

Q: Which “polyreactivity (PSR sort gate)” value does the source give for “QVQLVESGGGLVQAGGSLRLSCAASGRIYRYAMGWYRQAPWKERELVASISRRGGSTYYADSVKGRFTISRDNAKNTVYVQMNSLKPEDTALYSCNAYGYSFCYDYWGHGTQVTVSS” here?
A: high polyreactivity

Q: With “QVQLVESGGGLVQAGGSLRLSCAASGRIYWLYAMGWYRQAPGKERELVAAITGIGGSTYYADSVKVRFTISRDNAKNTVYLQMNSLKPEDTAVYYCAARNPASTAWMNYWGQGTQVNVSS” as the sequence, how does the “polyreactivity (PSR sort gate)” value read?
A: low polyreactivity

Q: Which “polyreactivity (PSR sort gate)” value does the source give for “QVQLVESGGGLVQAGGSLRLSCAASGRLFKIYAMGWYRQAPGKERELVATISSGGRTNYADSVKGRFTISRDNAKNTVYLQMNSLKPEDTAVYYCNAGARVLYETESFDYWGQGIQVTVSS” here?
A: low polyreactivity

Q: For “QVQLVESGGGLVQAGGSLRLSCAASGRMFHIYAMGWYRQAPGKERELVAGITTSGGSTYYADSVKGRFTISRDNAKNTVYLQMNSLKPEDTSVDYCARDGLWWCGLTKRWWEFYYWGQGTQVTVSS”, which “polyreactivity (PSR sort gate)” value is on record?
A: low polyreactivity

Q: With “QVQLVESGGGLVQAGGSLRLSCAASGRMFYYYVMGWYRQAPGKESELVAVIDWSGGSTYYADSLKGRFTISRDTAKNTVYLQMNSLKPEDTAVYYCARVPYGNPNGNTPYGDNRYNSWGQGTQVTVSS” as the sequence, how does the “polyreactivity (PSR sort gate)” value read?
A: low polyreactivity

Q: Which “polyreactivity (PSR sort gate)” value does the source give for “QVQLVESGGGLVQAGGSLRLSCAASGRNFDWYAMGWYRQAPGKERELVAAISTSGANTYYADSVKGRFTISRDNAKNTVYLQMNSLKPEDTAVYYCATDPYQPYEGDYWGQGTLVTVSS” here?
A: low polyreactivity

Q: For “QVQLVESGGGLVQAGGSLRLSCAASGRNFDYYTMGWYRQAPGKERELVARIRRSAGTTYYADSVKGRFTISRDNAKNPVYCQMNSLIPEDTAVYYCNVVPYFKYGYWGQGTQVTGSS”, which “polyreactivity (PSR sort gate)” value is on record?
A: low polyreactivity

Q: Which “polyreactivity (PSR sort gate)” value does the source give for “QVQLVESGGGLVQAGGSLRLSCAASGRNFFTYAMGWYRQAPGKERELVAAIDRSGTSTNYADSVKGRFTISRDNANNTVYLHMHSLKPEDTAVYYCAARPNPYYDEMDYWGQGTQVTVSS” here?
A: low polyreactivity

Q: For “QVQLVESGGGLVQAGGSLRLSCAASGRNFGLNAMGWYRQAPGKERELVAAIDQGDGITYYADSVKGRFTISRDNAKNTVYLQMNSLKTEDTAVYYCAAEVSYKEIYQYYWIYPAYNYWGQGTQVTVSS”, which “polyreactivity (PSR sort gate)” value is on record?
A: high polyreactivity

Q: With “QVQLVESGGGLVQAGGSLRLSCAASGRNFGYYVMGWYRQAPGKERELVAAIRSSADSTYYADSVKGRFTISRDNAKNTVYLQMNSLKPEDTAVYYCAAQSPAYYTKCYWGQGTQVTVSS” as the sequence, how does the “polyreactivity (PSR sort gate)” value read?
A: low polyreactivity

Q: With “QVQLVESGGGLVQAGGSLRLSCAASGRNFHRYAMGWYRQAPGKERELVATIRSGGGTYYADSVKGRFTISRDNAKNTVYLQMNSLKPEDTAVYDCNAQSSYSYFSGYDYWGQGTQVTVSS” as the sequence, how does the “polyreactivity (PSR sort gate)” value read?
A: low polyreactivity

Q: For “QVQLVESGGGLVQAGGSLRLSCAASGRNFKYYAMGWYRPAPGKERELVAAISWSGGSTYYADSVKGRFTISRDNAKNTVYLQMNSLKPEDTAVYYCATYGGLTKFRLAYDYWGQGTQVTVSS”, which “polyreactivity (PSR sort gate)” value is on record?
A: high polyreactivity

Q: Which “polyreactivity (PSR sort gate)” value does the source give for “QVQLVESGGGLVQAGGSLRLSCAASGRNFPVNAMGWYRQAPGKERELVAAISTTGARTYYADSVKGRFTISRDNAKNTVYLQMNSLKPEDTAVYYCAAKQFSVTLSNYWGQGTQVTVSS” here?
A: low polyreactivity

Q: With “QVQLVESGGGLVQAGGSLRLSCAASGRNFRVNAMGWYTQAPGKERELVAAISWIGGRTYYADSVKGRFTISRDNAKNTVYLQMNSLKPEDTAVYYCAAGTRRYYYWKYDYWGQGTQVTVSS” as the sequence, how does the “polyreactivity (PSR sort gate)” value read?
A: high polyreactivity

Q: Which “polyreactivity (PSR sort gate)” value does the source give for “QVQLVESGGGLVQAGGSLRLSCAASGRNFTDNDMGWYIQAPGKEMDLVAGINWSSGSTYYADSVKGRFTISRDNAKNTVYLQMNSLKTEDTAVYYCNALGYWRSTVHFVVGEVDYWGQGTQVTLSS” here?
A: low polyreactivity

Q: For “QVQLVESGGGLVQAGGSLRLSCAASGRNFTRNAMGWYRQAPGKEREFVAAISWSGGSTYYADSVKGRFTLSRDNAKNTVYVQMNSLKPEDTAVYYCAAKNCGGYVSWYDYWGQGTQVTVSS”, which “polyreactivity (PSR sort gate)” value is on record?
A: low polyreactivity

Q: Which “polyreactivity (PSR sort gate)” value does the source give for “QVQLVESGGGLVQAGGSLRLSCAASGRNFVAYTMGWSRQAPGKERELVAAIRIIGGSTYYADSVKGRFTISRDNAKNTVYLQMNSLKPVDTAVYFCDTPYAYPGTVQYAGYNYWGQGTQVTVSS” here?
A: high polyreactivity

Q: With “QVQLVESGGGLVQAGGSLRLSCAASGRNFYGNAMGWYRQAPGKERELVAAISSGTSTNYADSVKGRFTISRDNAKNTVYLQMNSLKPEDTAVYYCAAGSYSRYLYSLYFDFDYWGQGTQVTVSS” as the sequence, how does the “polyreactivity (PSR sort gate)” value read?
A: low polyreactivity

Q: Which “polyreactivity (PSR sort gate)” value does the source give for “QVQLVESGGGLVQAGGSLRLSCAASGRNFYVYAMGWYRQAPGKEREFVASITVSGSSTYYADSVKGRFTISRDNAKNTVYLQMNSLKPEDTAVYYCNTDAVRSYVWWGTSLYDYWGQGTLVTVSS” here?
A: low polyreactivity

Q: Which “polyreactivity (PSR sort gate)” value does the source give for “QVQLVESGGGLVQAGGSLRLSCAASGRNFYYNAMGWYRQAPGKEREFVAGISYGGTTTYYADSVKGRFTISRDNAKNTVYLLMNSLKPEDTAVYYCAAGYTWRQSWYPFDYWGQGTQVTVSS” here?
A: high polyreactivity

Q: With “QVQLVESGGGLVQAGGSLRLSCAASGRNIWGYTMGWYRQAPGKERDLVAAIRFTSGSTYYADSVKGRFTISRDNAKNSVYLQMNSLKPEDTAVYYCATPYVQTGSGYTGVYWGQGTQVTVSS” as the sequence, how does the “polyreactivity (PSR sort gate)” value read?
A: high polyreactivity

Q: Which “polyreactivity (PSR sort gate)” value does the source give for “QVQLVESGGGLVQAGGSLRLSCAASGRNLQQYVMGWYRQAPGKERELVAAITRGGRTNYADSVKGRFTISRDYAKNTVYLLMNSLKQEDTAVYYCKTRYPSRVVAWLDYWGQGTQVNVSS” here?
A: low polyreactivity

Q: With “QVQLVESGGGLVQAGGSLRLSCAASGRNYGNAMGWYRQAPGKERELVAAISAGGGRTYYADSVKGRFTISRDNAKNTVYLQMNSLKPEDTAVYYCAADTTLQAFIRYRPIGSYDSWGQGTQVTVSS” as the sequence, how does the “polyreactivity (PSR sort gate)” value read?
A: low polyreactivity

Q: Which “polyreactivity (PSR sort gate)” value does the source give for “QVQLVESGGGLVQAGGSLRLSCAASGRNYWVYAMGWYREAPGKERELVASIDSGSRTTYADSVKGRFTISRDNAKNTVYLQMISLKQEDTAVYYSATSSYTYSPRVWYRWRRDYWGQGTQVNVSS” here?
A: high polyreactivity

Q: For “QVQLVESGGGLVQAGGSLRLSCAASGRPFKPYAMGWYRPAPGKERELVAVISSTGSTKYADSVKGRFTISRDNAKNTVYLQMNSLKPEDTAVYYCNAGSLYSDRWVKRKYDYSGQGTQVTVSS”, which “polyreactivity (PSR sort gate)” value is on record?
A: high polyreactivity

Q: For “QVQLVESGGGLVQAGGSLRLSCAASGRPFYKNTMGWYRQAPGKEREFVATISASGGSTYYADSVKGRFSSSRDNATNTVYLQMNSLKPEDTAVYYCAKRDYAGYAVHIGGDMNYWGQGTQVTVSS”, which “polyreactivity (PSR sort gate)” value is on record?
A: low polyreactivity

Q: For “QVQLVESGGGLVQAGGSLRLSCAASGRPLGQNVMGWYRQAPGKERELVAASSSNTAGNTYYADSVKGRFTISRDNAKNTVYLQMNSLKAEDTAVYYCAKVDSFEAKLDYWGQGTQVTVSS”, which “polyreactivity (PSR sort gate)” value is on record?
A: low polyreactivity

Q: With “QVQLVESGGGLVQAGGSLRLSCAASGRPSLLMLWDGIDRRLGKKGSWLPLLTLVTPTTYADSVKGRFTISRDNAKNTVYLQMNSLKPEDTAVYYCNADFRPLDHYVNWYYYWGQGTQVTVSS” as the sequence, how does the “polyreactivity (PSR sort gate)” value read?
A: low polyreactivity

Q: Which “polyreactivity (PSR sort gate)” value does the source give for “QVQLVESGGGLVQAGGSLRLSCAASGRSFCSYAMGWYRHAPGKERELVAAITSGGSTNYADSVKGRFTISRDNAKNTVYLQMNSLKPEVTAVYYCAAVEYLRESDYWGQGTQVTVSS” here?
A: low polyreactivity

Q: Which “polyreactivity (PSR sort gate)” value does the source give for “QVQLVESGGGLVQAGGSLRLSCAASGRSFCYNAMGWYSQAPGKERELVAGISSSGGTTYYADSVKGRFTISRDKAKNTVYLQMNSLKPEDTAVYYCAKRFSLLSTVRWGRYNYWGQGTQVTVSS” here?
A: high polyreactivity

Q: For “QVQLVESGGGLVQAGGSLRLSCAASGRSFDRYAMGWYRQAPGKERELVAGITASGGSTYYADSVKGRFTISRDNAKNTVYLQMNSLKPEDTAVYYCAVVYGYRYYYWGQGTQVTVSS”, which “polyreactivity (PSR sort gate)” value is on record?
A: high polyreactivity

Q: With “QVQLVESGGGLVQAGGSLRLSCAASGRSFGLYAMGWYRQAPGKERELVAAISYSGGRTYYADSVKRRFTLSRDNAKKTVYLQRNILKPEDTGVYYCNKAWFPYYYYRFDYWGQGTQVTVSS” as the sequence, how does the “polyreactivity (PSR sort gate)” value read?
A: high polyreactivity

Q: With “QVQLVESGGGLVQAGGSLRLSCAASGRSFTPYARGWYRQAPGKERELVAAISTIGGTTYADSVKGRFTISRDNAKNTVYLQRNSLKPEDTAVYYCAAERPPYPGNGRDYWGQGTQVTVSS” as the sequence, how does the “polyreactivity (PSR sort gate)” value read?
A: high polyreactivity

Q: Which “polyreactivity (PSR sort gate)” value does the source give for “QVQLVESGGGLVQAGGSLRLSCAASGRSFWRNAMGWYRQAPGRERELVAAMSRGGSTNYADSVKGRFTMSRDNAKKTVYLPMNSLKPEDTAVYYCAARYYYRYNYWRQGTQVTVSS” here?
A: high polyreactivity

Q: Which “polyreactivity (PSR sort gate)” value does the source give for “QVQLVESGGGLVQAGGSLRLSCAASGRSFYRNAMGWYRQAPGKERELVAAITSSGASTYYADSVKGRFTISRDNAKNTVYLQMNSLKPEDTAVYYCAAKYVYSVGNYRYDYWGQGTQVTVSS” here?
A: low polyreactivity

Q: With “QVQLVESGGGLVQAGGSLRLSCAASGRSIRIYAMGWYRQAPGKERELVAAIRWSGGTTYYADSVKGRFTISRDNAKNTVYLQMNSLKPEDTAVYYCAADSTNRYDYWGQGTQVTVSS” as the sequence, how does the “polyreactivity (PSR sort gate)” value read?
A: high polyreactivity

From the nanobody polyreactivity screen of Harvey et al. (2022)
